System: Ir-CPI (Ixodes ricinus Contact Phase Inhibitor), recombinant, without its peptide signal

| Substance | activation of factor XII into factor XIIa by kallikrein, reconstituted system with purified factors, chromogenic substrate | amidolytic activity (chromogenic substrate S-2302), protease preincubated with Ir-CPI at 1:5 molar ratio | activation of factor XII into factor XIIa by factor XIa, reconstituted system with purified factors, chromogenic substrate | amidolytic activity (chromogenic substrate S-2366), protease preincubated with Ir-CPI at 1:5 molar ratio |
| --- | --- | --- | --- | --- |
| kallikrein | Ir-CPI did not inhibit the activation of factor XII into factor XIIa by kallikrein | The results obtained did not show any effect of Ir-CPI protein on the amidolytic activity of these factors |  |  |
| factor XIa |  |  | Ir-CPI inhibits ... the activation of factor XII into factor XIIa by factor XIa | The results obtained did not show any effect of Ir-CPI protein on the amidolytic activity of these factors |

Source: patent publication US20080219970
